Assay: soluble on expression in E. coli; label from the status in PepcDB or PDB records

Which “soluble on expression in E. coli” value does the source give for “MNMFNRKAKQEVTKKPEASNGSKNSKSTFVNSKSPNQKRREVKKSDSDTESSHKNTRRTKPVPVPAASSNSKGSNEKHKRKSVQQVVKKVVNHIPFSPSKQPKSTSTPPVSEGNRKRLAMADVSINQLESEMDSFVKKIEPNERRATQYIHSNSLSRSNEAVPPGNVKTSQQKADHHLIRTTRSLIGLDGETEAVYSKATKASPDKGKLTADSPSSRRTSKSLEENSSETTNDSISLADDEETREAYRKLFKDFAMSSQKMTLDDFKQEFSNLPGDPPSDLCTVFNHPVNNKKNRYSNIPCLDISRVQLKFKMPNKNSTDYIHANYIRSPFLKRGYILTQGPKKETRADFWRMIWQENTTAIVMLCQFLETNREKCAEYFPRNAHCCLQFDKFSVNYEDSTVNKSLVTTRLNLSYEGETRLITHWLWKEWPDWQVPESSEVMLKILRKIRARSTPPVIHCSAGVGRSGTLMAVEIALQSIHTHFTLPDIKQIVSHLRVTGRAASVQTLQQYMLIWKVLLDFGVAYKQITEELAEKFNSTYRRSLRSINGT” here?
Its value is “not soluble”.

Which “soluble on expression in E. coli” value does the source give for “MEFDKGQTLGNFIDRIRLNGYNTECVFNQSICQDIKNHYKQQCCAMCGVRGNSENTQIEVDHKDGRKDDSRVSDLSTQAFDDFQALCKACNDKKRQICKKCKETGYRFDARKIPGNHYSFYEGEAEYDGCVGCYQYDPIQYRKTCNDRIYNEGYQKGYSDGYQIGYHQKTTL” here?
The value was “not soluble”.

For “AGPGAEEEQLDTAEIAFQVKEQLLKHNIGQRVFGHYVLGLSQGSVSEILARPKPWRKLTVKGKEPFIKMKQFLSDEQNVLALRTIQVR”, which “soluble on expression in E. coli” value is on record?
The value was “soluble”.

Which “soluble on expression in E. coli” value does the source give for “MKLSKIKLPYFMNELTLTELDMGVAVPKILQAFKPYVDHQGLWIDLEMSYNGSFLMTLETKMNLTKLGKEPLVEALKVGEIGKEGCRPRAFCLADSDEESSSAGSSEEDDAPEPSGGDKQLLPGAEGYVGGHRTSKIMRFVDKITKSKYFQKATETEFIKKKIEEVSNTPLLLTVEVQECRGTLAVNIPPPPTDRVWYGFRKPPHVELKARPKLGEREVTLVHVTDWIEKKLEQEFQKVFVMPNMDDVYITIMHSAMDPRSTSCLLKDPPVEAADQP” here?
The value was “not soluble”.

With “MDIKVHFHDFSHVRIDCEESTFHELRDFFSFEADGYRFNPRFRYGNWDGRIRLLDYNRLLPFGLVGQIKKFCDNFGYKAWIDPQINEKEELSRKDFDEWLSKLEIYSGNKRIEPHWYQKDAVFEGLVNRRRILNLPTSAGRSLIQALLARYYLENYEGKILIIVPTTALTTQMADDFVDYRLFSHAMIKKIGGGASKDDKYKNDAPVVVGTWQTVVKQPKEWFSQFGMMMNDECHLATGKSISSIISGLNNCMFKFGLSGSLRDGKANIMQYVGMFGEIFKPVTTSKLMEDGQVTELKINSIFLRYPDEFTTKLKGKTYQEEIKIITGLSKRNKWIAKLAIKLAQKDENAFVMFKHVSHGKAIFDLIKNEYDKVYYVSGEVDTETRNIMKTLAENGKGIIIVASYGVFSTGISVKNLHHVVLAHGVKSKIIVLQTIGRVLRKHGSKTIATVWDLIDDAGVKPKSANTKKKYVHLNYLLKHGIDRIQRYADEKFNYVMKTVNLLEHHHHHH” as the sequence, how does the “soluble on expression in E. coli” value read?
The value was “soluble”.

Which “soluble on expression in E. coli” value does the source give for “TDIVLWDKPGEKVLLLGNQAIVRGALEGNIGVYAAYPGTPSSEITDTMAMVAKKAGVYMEYSTNEKVAFETALSASWAGLRAMTAMKHVGLNVAMDSFMTVSYMGINGGLIVVVADDPSMWSSQNEQDTRAIAKFANIPVLEPSSVQEAKDMVKYAFEISEKYGQMVILRTTTRSSHMRGDVVLGELPQEIKEGKRKFGNFKKNPEKYVDIPAFQRPKHPWLLETIEKFREEFNTSPFNWIEGPEDAKVGIIAPGLSYAYVKEALAWLGIDNVKILKLGTPFPVPYGLLEKFFNGLERVLIVEELEPVVEEQVKVWAFDNNINIEIHGKDLVPRVYEMTTRRAVEAVAKFLGVETPINFQEIDEKYKKVQEMVPPRPPSLCPACPHRNTFFAIRKAATPRAIFPSDIGCYTLGVLPPLKTVDTTIAMGGSIGVAHGLSIALNGALGEEQRKTGKEKKIIVATIGDSTFFHTGLPALANAIYNRSNVLIVVMDNMVTAMTGDQPNPGTGETPHGPGKRILIEEVARAMGADFVAVVDPYDIKETYETIKKALEVEGVSVVVSRRACALYRIGQLRREGKQWPIYQVNEEKCTGCKICINAYGCPAIYWDAEK” here?
The value was “not soluble”.

With “MGSDKIHHHHHHMVGTDHVVHSLVACALCFKAVTLPLSSQTQILSGWGRTMPVQAKVVQPASVQQVQELVRQASPASLIARGLGRSYGDAAQLDGASAVEMGAFDQINLDLVKGSVTAGAGVSLNQLLRVIVPAGFFLPVTPGTRNVTIGGAIAADVHGKNHHVDGSFGNHLQRLLLVDGRGELRELTPSGKSSVDEIEQFWATVGGMGLTGIIVEATFSLIPISSSLISVNTARYHNLDELMAAMVASDSNYRYSVAWIDSLNAKGRGVLSCGDHAMAEQLPTSQQADPLVYDPKPLASAPTFLPVGLLNKLTVRAFNEAWFRKAPKQRLGELQTIGAYFHPLDGVQDWNRIYGPAGFLQYQFVVPDNASHLVLYTLEALRKIGTSSFLTVLKRFGPSNPGHLSFPMQGWTLAVDLPAAVPGLFEVLDHLDEHIAAENGRLYLAKDSRQSATILRRTYPRLEEWQQAREKLDPSKVFSSDMAIRTGL” as the sequence, how does the “soluble on expression in E. coli” value read?
The value was “not soluble”.

For “MGSDKIHHHHHHMTEDQAFWNAFAPDYAAAEQASRLPIAHDVIAWLRSTQLLPAHSAVDLAAGTGRYAVQMMPWVQELTLIDWSSAMLAFAKERMHQQADTKAQFIVADWRKLHKPLNADMLFVSQLPTLKPQDLKMLMNWASQTVVLNFQTAQSDALLEQAASLLGLQLPPVYQADPARMISFKVWLTAQRIPFQSHSLTYEIEEQTTLSDLLPDLATPIGLKTAASLAKAITGHENTHVQVTDRLTYTYTQLVWHV”, which “soluble on expression in E. coli” value is on record?
The value was “not soluble”.

With “MNQLVCPLCCETLKEEGAHFYKHFKYKRYACGESTCDMGFYTQQELNAHCSKHGHKRSFQKTVNPYIDKMISVVVEDAYALATDDMETVLEKRWGRDPRSVSPTSPVKKTPTDSAKNKRSSVVTPTSPPVPKKAKSGTSTTSPFAFLNRRTNNSESSLCPNASSTSAQPASSSSAQAIVDSTTSEHNISIDKTKKPRKKRNESMTAAQNQEKAGKNANYDEMSAIDKLIGWFDPNVPERRDAAKVKCAVCNEEIVYDFILRKGHVTRSHMAADVAPEDYDDLLKTAMDRSYPDLPNSDLACQLCMTGAEVRKNMRREHIEKLHTTSLPPLTCPVGECEKGFRRQCDLSSHMKDTHKASMAVYKNATFQQVRRRRNAMINEMINKCFPWSRLEAIENKTVVGEKSDSVNRAPVDRSFDTDVRVRDVNKTRRAPQYNANRSSSSDSDSEHEEAASVATGEVSETGGTDDFPQDVIYICHQFNTEVAQKLSQIVRIKPEIIDVEDVLMNDVTMEINEIPVKEETEEEQPKEENNSTLPSIPIPSIFSPYEPIVPPPATSPDPMNPPIASLLPTRILSATNVLENKYNENVSSRRSTSRERSSNRNYDERWSRNDYSNPRNYSNRSFHQRNQRGHSSSNRFNSPFVSRNNYNNNSETTEGSSRRSEYNSSSSNHHSRSSYRGNRDDRGSRW” as the sequence, how does the “soluble on expression in E. coli” value read?
The value was “not soluble”.

Which “soluble on expression in E. coli” value does the source give for “MAIKDLFNNFFLMDDEEEVESPEERQRRVVQNEENETNNVQQNQPQQSERSYSNQSKLKTVPQKKTTRNYNSEERNVRMNQPPSKSNGKNVVTMNQTSQSYSGYESSKMCLFEPRVFSDTQDIADELKNRRATLVNLQRIDKISAKRIIDFLSGTVYAIGGDIQRVGTDIFLCTPDNVEVAGSITDHIEQMESQHYELEHHHHHH” here?
Its value is “not soluble”.

For “MLNTTFANAKFANPFMNASGVHCMTIEDLEELKASQAGAYITKSSTLEKREGNPLPRYVDLELGSINSMGLPNLGFDYYLDYVLKNQKENAQEGPIFFSIAGMSAAENIAMLKKIQESDFSGITELNLSCPNVPGKPQLAYDFEATEKLLKEVFTFFTKPLGVKLPPYFDLVHFDIMAEILNQFPLTYVNSVNSIGNGLFIDPEAESVVIKPKDGFGGIGGAYIKPTALANVRAFYTRLKPEIQIIGTGGIETGQDAFEHLLCGATMLQIGTALHKEGPAIFDRIIKELEEIMNQKGYQSIADFHGKLKSL”, which “soluble on expression in E. coli” value is on record?
Its value is “soluble”.

Which “soluble on expression in E. coli” value does the source give for “MCGRFAYIASYDKLKYQFHLANAIEVPPRFNISPGADVLCLVETDGHKIQCVLLRWGFIPSWATDRKKLGNLINARAETVFEKPTFRQSIKSKRCLIPMSGFYEWRQEDGVKQPYFFQKKNHDLLAVAAIRDTWQQSDEVIHSCCLITTDANAFMQPVHNRMPVILGEEAQAIWLNNTQYDKAQLMALMKPYPYEDLEGYRVTTLVNKANFDHPLAMEPLSELEHHHHHH” here?
Its value is “soluble”.
